Results published in patent US20190263932A1 (Eli Lilly, published 2019).
Changes are numbered by the printed parent chain.

Tests used:
[1] = biological target: T1, recombinant human TrkA protein (human, UniProt P04629-2 34-407, limits assumed); assay: NGF-blocking ELISA on coated human TrkA, 100 nM btNGF; mAb 0.63 nM
Description: (§1) Each row of a 96-well high-binding clear-bottom microtiter plate (Microlon, #655061) was coated overnight at 4° C. with 100 μL/well of recombinant human TrkA protein, diluted to 2 μg/mL in phosphate buffered saline, pH 7.2 (PBS). The next day, the coating solution was removed, and the plate was blocked with 150 μL of Casein-PBS (Thermo Scientific, #37528) for 1 hour at 25° C. with gentle shaking. The plate was then washed three times with PBS supplemented with 0.05% Tween20 (PBST). A two-fold dilution series of exemplified antibodies, along with IgG4 and IgG1 isotype control antibodies, was generated starting at 20 nM in Casein-PBS. 100 μL of the each dilution series sample was added to a well for 30 min at 37° C. with gentle shaking. The plate was then washed three times with PBST. […] The plate was then washed three times with PBST. A 1:3500 dilution of a 1 mg/mL stock solution of streptavidin-HRP (Thermo Scientific, #21130) in Casein-PBS was prepared and […] was added to each well for 20 min at 37° C. with gentle shaking. The plate was washed three times with PBST. […] The reaction was stopped by addition of 100 μL of 1M H₃PO₄ to each well. The absorbance at 450 nm (Abs450) was measured using a SpectraMax 340PC plate reader (Molecular Devices).

[2] = biological target: T1, recombinant human TrkA protein; assay: NGF-blocking ELISA on coated human TrkA, 100 nM btNGF; mAb 0.31 (printed pM, two-fold series gives nM)
Description: as §1

[3] = biological target: T1, recombinant human TrkA protein; assay: NGF-blocking ELISA on coated human TrkA, 100 nM btNGF; mAb 2.5 nM
Description: as §1

[4] = biological target: T1, recombinant human TrkA protein; assay: NGF-blocking ELISA on coated human TrkA, 100 nM btNGF; mAb 0.04 nM
Description: as §1

[5] = biological target: T2, rat TrkA receptor expressed in transfected HEK293 cells (rat, UniProt P35739 33-799); assay: cell-based or functional assay
[6] = biological target: T3, Human TrkA Extracellular Domain Isoform 2 (33-408) (human, UniProt P04629 33-414); assay: SPR, mAb captured on Protein A chip, 37 C
T3 construct: SPR analyte; also called Human TrkA Isoform 2
Description: (§2) The binding kinetics and affinity of exemplified antibodies to human, cynomolgus monkey, rat, mouse, and rabbit TrkA are determined as described below using a surface plasmon resonance assay on a BIACORE™ 8K instrument (GE Healthcare). Two different isoforms of human TrkA (isoform 1 and isoform 2) are evaluated along with human TrkB and human TrkC. […] All FC2 on all eight channels are set to capture approximately 89 response units (RU) of antibody at a flow rate of 10 μL/min. The antibody sample is prepared at 1 μg/mL by dilution into the running buffer. […] Before the analysis cycle, the chip is regenerated with 3 injections of glycine (pH ˜1.5) at 100 μL/min for a contact time of 15 seconds on FC1 and FC2 in order to clean the surface of the chip.

[7] = biological target: T4, Human TrkA Extracellular Domain Isoform 1 (33-414) (human, UniProt P04629 33-414); assay: SPR, mAb captured on Protein A chip, 37 C
T4 construct: SPR analyte; also called Human TrkA Isoform 1
Description: as §2

[8] = biological target: T1, recombinant human TrkA protein; assay: NGF-blocking ELISA on coated human TrkA, 100 nM btNGF; mAb 0.08 nM
Description: as §1

[9] = biological target: TrkA on rat NEUROSCREEN-1 cells (pheochromocytoma PC12 subclone) (rat, UniProt P35739 33-799); assay: cell-based or functional assay
[10] = biological target: T1, recombinant human TrkA protein; assay: NGF-blocking ELISA on coated human TrkA, 100 nM btNGF; mAb 0.02 nM
Description: as §1

[11] = biological target: T1, recombinant human TrkA protein; assay: NGF-blocking ELISA on coated human TrkA, 100 nM btNGF; mAb 20 nM
[12] = biological target: T1, recombinant human TrkA protein; assay: NGF-blocking ELISA on coated human TrkA, 100 nM btNGF; mAb 10 nM
Description: as §1

[13] = biological target: T1, recombinant human TrkA protein; assay: NGF-blocking ELISA on coated human TrkA, 100 nM btNGF; mAb 5 nM
Description: as §1

[14] = biological target: T2, rat TrkA receptor expressed in …; assay: cell-based or functional assay; remark: listed apart in the source
[15] = biological target: T1, recombinant human TrkA protein; assay: NGF-blocking ELISA on coated human TrkA, 100 nM btNGF; mAb 0.16 nM
Description: as §1

[16] = biological target: T1, recombinant human TrkA protein; assay: NGF-blocking ELISA on coated human TrkA, 100 nM btNGF
Description: as §1

[17] = biological target: T1, recombinant human TrkA protein; assay: NGF-blocking ELISA on coated human TrkA, 100 nM btNGF; mAb 1.25 nM
Description: as §1

T2 sequence (P35739 33-799): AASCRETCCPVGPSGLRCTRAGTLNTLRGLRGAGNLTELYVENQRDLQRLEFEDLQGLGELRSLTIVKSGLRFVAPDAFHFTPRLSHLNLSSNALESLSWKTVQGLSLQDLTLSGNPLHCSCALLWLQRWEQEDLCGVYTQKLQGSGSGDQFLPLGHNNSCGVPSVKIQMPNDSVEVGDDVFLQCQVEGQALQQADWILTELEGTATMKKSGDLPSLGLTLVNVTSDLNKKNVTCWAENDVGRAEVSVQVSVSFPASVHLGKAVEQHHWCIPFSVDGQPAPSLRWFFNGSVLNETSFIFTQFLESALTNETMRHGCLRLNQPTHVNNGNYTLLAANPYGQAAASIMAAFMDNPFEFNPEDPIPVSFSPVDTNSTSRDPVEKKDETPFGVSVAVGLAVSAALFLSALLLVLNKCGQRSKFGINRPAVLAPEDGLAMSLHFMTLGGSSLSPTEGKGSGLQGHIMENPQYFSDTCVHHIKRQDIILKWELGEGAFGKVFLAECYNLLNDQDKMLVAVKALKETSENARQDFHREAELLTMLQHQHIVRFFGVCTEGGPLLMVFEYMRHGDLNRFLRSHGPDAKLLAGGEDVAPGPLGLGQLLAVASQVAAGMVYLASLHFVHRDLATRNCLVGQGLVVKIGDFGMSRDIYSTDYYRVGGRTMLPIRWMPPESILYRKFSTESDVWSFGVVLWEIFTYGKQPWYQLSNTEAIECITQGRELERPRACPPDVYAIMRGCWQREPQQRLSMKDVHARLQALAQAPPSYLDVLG
Sequence of TrkA on rat NEUROSCREEN-1 cells (pheochromocytoma PC12 subclone) (P35739 33-799): as above
T1 sequence (P04629 other isoform, or with tags, fused parts or gaps limits assumed): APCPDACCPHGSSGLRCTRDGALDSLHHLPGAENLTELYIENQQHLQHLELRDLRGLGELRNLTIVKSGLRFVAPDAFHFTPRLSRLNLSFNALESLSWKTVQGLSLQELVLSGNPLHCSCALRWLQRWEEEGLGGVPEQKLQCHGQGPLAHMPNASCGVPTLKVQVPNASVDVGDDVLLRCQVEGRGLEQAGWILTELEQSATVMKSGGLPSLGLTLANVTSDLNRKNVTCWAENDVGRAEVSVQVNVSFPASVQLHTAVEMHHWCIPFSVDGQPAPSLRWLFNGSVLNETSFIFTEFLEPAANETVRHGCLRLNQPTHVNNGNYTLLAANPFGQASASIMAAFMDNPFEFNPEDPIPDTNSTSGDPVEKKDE
T3 sequence (P04629 other isoform, or with tags, fused parts or gaps): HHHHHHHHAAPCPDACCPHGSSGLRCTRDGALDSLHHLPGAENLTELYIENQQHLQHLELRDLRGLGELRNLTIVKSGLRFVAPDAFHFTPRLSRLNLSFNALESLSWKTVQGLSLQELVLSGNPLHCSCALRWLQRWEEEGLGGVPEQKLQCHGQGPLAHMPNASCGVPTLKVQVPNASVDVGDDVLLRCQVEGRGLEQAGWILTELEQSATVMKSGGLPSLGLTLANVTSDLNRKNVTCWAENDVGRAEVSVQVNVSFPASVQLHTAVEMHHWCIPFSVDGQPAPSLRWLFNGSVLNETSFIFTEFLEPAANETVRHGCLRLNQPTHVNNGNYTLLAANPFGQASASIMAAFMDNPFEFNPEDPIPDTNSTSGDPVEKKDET
T4 sequence (P04629 other isoform, or with tags, fused parts or gaps): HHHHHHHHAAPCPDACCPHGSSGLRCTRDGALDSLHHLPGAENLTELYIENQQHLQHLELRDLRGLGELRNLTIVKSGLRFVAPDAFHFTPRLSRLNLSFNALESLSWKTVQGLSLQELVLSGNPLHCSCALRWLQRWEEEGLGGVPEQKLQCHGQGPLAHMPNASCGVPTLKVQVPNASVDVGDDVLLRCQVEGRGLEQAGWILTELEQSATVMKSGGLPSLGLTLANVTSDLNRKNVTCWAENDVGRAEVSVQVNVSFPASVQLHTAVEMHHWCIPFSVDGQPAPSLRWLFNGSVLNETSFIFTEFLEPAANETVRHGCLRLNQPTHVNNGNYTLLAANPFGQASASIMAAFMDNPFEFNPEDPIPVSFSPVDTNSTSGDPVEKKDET

B1: mAb D (antibody, human IgG1, kappa)
heavy: EVQLVESGGGLVKPGGSLRLSCAASGFTFSGVSINWVRQAPGKGLEWVSSETTSSGTIYYADSVKGRFTISRDNAKNSLYLQMNSLRAEDTAVYYCARSYYYGMDVWGQGTTVTVSSASTKGPSVFPLAPSSKSTSGGTAALGCLVKDYFPEPVTVSWNSGALTSGVHTFPAVLQSSGLYSLSSVVTVPSSSLGTQTYICNVNHKPSNTKVDKRVEPKSCDKTHTCPPCPAPEAEGAPSVFLFPPKPKDTLMISRTPEVTCVVVDVSHEDPEVKFNWYVDGVEVHNAKTKPREEQYNSTYRVVSVLTVLHQDWLNGKEYKCKVSNKALPSSIEKTISKAKGQPREPQVYTLPPSREEMTKNQVSLTCLVKGFYPSDIAVEWESNGQPENNYKTTPPVLDSDGSFFLYSKLTVDKSRWQQGNVFSCSVMHEALHNHYTQKSLSLSPGK
light: DIVMTQTPLSSPVTLGQPASISCRSSQSLVHRAGNTYLSWLQQRPGQPPRLLIYKISNRFSGVPDRFSGSGAGTDFTLKISRVEAEDVGVYYCMQARQFPLTFGGGTKVEIKRTVAAPSVFIFPPSDEQLKSGTASVVCLLNNFYPREAKVQWKVDNALQSGNSQESVTEQDSKDSTYSLSSTLTLSKADYEKHKVYACEVTHQGLSSPVTKSFNRGEC
notes: Human IgG1EN/Kappa
In the case of B1, the “Absorbance 450 nm” value [1] is reported as 0.38, the “Absorbance 450 nm” value [2] is reported as 0.67 and the “Absorbance 450 nm” value [3] is reported as 0.16. The “Absorbance 450 nm” value [4] was 1, the “% Max Inhibition, pTrkA” value [5] was 40% and the “IC50 (nM), pTrkA” value [5] was 0.68 nM. The “pTrkA counts per second, NGF +0.1 pM mAb” value [5] was 4.53e+06 counts per second, the “pTrkA counts per second, NGF +1 pM mAb” value [5] was 4.06e+06 counts per second and the “pTrkA counts per second, NGF +10 pM mAb” value [5] was 4.52e+06 counts per second. The “pTrkA counts per second, NGF +100 pM mAb” value [5] was 3.79e+06 counts per second, the “pTrkA counts per second, NGF +1 nM mAb” value [5] was 3.16e+06 counts per second and the “pTrkA counts per second, NGF +10 nM mAb” value [5] was 2.43e+06 counts per second. The “pTrkA counts per second, NGF +100 nM mAb” value [5] was 2.59e+06 counts per second, the “pTrkA counts per second, NGF +1 uM mAb” value [5] was 1.93e+06 counts per second and the Kd [6] was 4.9 nM. For the same binder, the koff [6] was 0.0013 s⁻¹, the kon [6] was 250000 M⁻¹ s⁻¹ and the Kd [7] was 4.4 nM. The koff [7] was 0.0012 s⁻¹, the kon [7] was 280000 M⁻¹ s⁻¹ and the “Absorbance 450 nm” value [8] was 0.96. The “% Max Stimulation of neurite outgrowth” value [9] was 17%, the “IC50, inhibition of NGF-induced neurite outgrowth” value [9] was 0.08 nM and the “Absorbance 450 nm” value [10] was 1.05. For the same binder, the “Absorbance 450 nm” value [11] was 0.19, the “Absorbance 450 nm” value [12] was 0.17 and the “Absorbance 450 nm” value [13] was 0.19. The “% Max stimulation, pTrkA” value [14] was 77%, the “EC50 (nM), pTrkA” value [14] was 0.17 nM and the “pTrkA counts per second, 0.1 pM mAb, no NGF” value [14] was 571000 counts per second. The “pTrkA counts per second, 1 pM mAb, no NGF” value [14] was 585000 counts per second, the “pTrkA counts per second, 10 pM mAb, no NGF” value [14] was 627000 counts per second and the “pTrkA counts per second, 100 pM mAb, no NGF” value [14] was 1.25e+06 counts per second. For the same binder, the “pTrkA counts per second, 1 nM mAb, no NGF” value [14] was 2.39e+06 counts per second, the “pTrkA counts per second, 10 nM mAb, no NGF” value [14] was 2.97e+06 counts per second and the “pTrkA counts per second, 100 nM mAb, no NGF” value [14] was 2.85e+06 counts per second. For the same binder, the “pTrkA counts per second, 1 uM mAb, no NGF” value [14] was 2.05e+06 counts per second, the “Absorbance 450 nm” value [15] was 0.89 and the IC50 [16] was 0.37 nM. The “Absorbance 450 nm” value [17] was 0.19.

B2: mAb E (antibody, human IgG1, kappa)
heavy: B1 heavy
light: B1 light with A33Q
notes: Human IgG1EN/Kappa
With B2 the “Absorbance 450 nm” value [1] was 0.41, the “Absorbance 450 nm” value [2] was 0.68 and the “Absorbance 450 nm” value [3] was 0.19. For the same binder, the “Absorbance 450 nm” value [4] was 1.04, the “% Max Inhibition, pTrkA” value [5] was 37% and the “IC50 (nM), pTrkA” value [5] was 0.68 nM. For the same binder, the “pTrkA counts per second, NGF +0.1 pM mAb” value [5] was 2.94e+06 counts per second, the “pTrkA counts per second, NGF +1 pM mAb” value [5] was 3.38e+06 counts per second and the “pTrkA counts per second, NGF +10 pM mAb” value [5] was 3.44e+06 counts per second. For the same binder, the “pTrkA counts per second, NGF +100 pM mAb” value [5] was 3.7e+06 counts per second, the “pTrkA counts per second, NGF +1 nM mAb” value [5] was 2.27e+06 counts per second and the “pTrkA counts per second, NGF +10 nM mAb” value [5] was 2.23e+06 counts per second. The “pTrkA counts per second, NGF +100 nM mAb” value [5] was 1.7e+06 counts per second, the “pTrkA counts per second, NGF +1 uM mAb” value [5] was 1.88e+06 counts per second and the Kd [6] was 5.2 nM. It also gave a koff [6] of 0.0014 s⁻¹, a kon [6] of 260000 M⁻¹ s⁻¹ and a Kd [7] of 4.8 nM. For the same binder, the koff [7] was 0.0013 s⁻¹, the kon [7] was 270000 M⁻¹ s⁻¹ and the “Absorbance 450 nm” value [8] was 1.05. The “% Max Stimulation of neurite outgrowth” value [9] was 17%, the “IC50, inhibition of NGF-induced neurite outgrowth” value [9] was 0.07 nM and the “Absorbance 450 nm” value [10] was 1.1. The “Absorbance 450 nm” value [11] was 0.19, the “Absorbance 450 nm” value [12] was 0.19 and the “Absorbance 450 nm” value [13] was 0.21. For the same binder, the “% Max stimulation, pTrkA” value [14] was 74%, the “EC50 (nM), pTrkA” value [14] was 0.3 nM and the “pTrkA counts per second, 0.1 pM mAb, no NGF” value [14] was 739000 counts per second. For the same binder, the “pTrkA counts per second, 1 pM mAb, no NGF” value [14] was 636000 counts per second, the “pTrkA counts per second, 10 pM mAb, no NGF” value [14] was 610000 counts per second and the “pTrkA counts per second, 100 pM mAb, no NGF” value [14] was 1.01e+06 counts per second. The “pTrkA counts per second, 1 nM mAb, no NGF” value [14] was 1.82e+06 counts per second, the “pTrkA counts per second, 10 nM mAb, no NGF” value [14] was 2.46e+06 counts per second and the “pTrkA counts per second, 100 nM mAb, no NGF” value [14] was 2.02e+06 counts per second. The “pTrkA counts per second, 1 uM mAb, no NGF” value [14] was 2.05e+06 counts per second, the “Absorbance 450 nm” value [15] was 0.92 and the IC50 [16] was 0.35 nM. For the same binder, the “Absorbance 450 nm” value [17] was 0.25.
